One data set has as its target Ku70-5A/Ku80 heterodimer (human, UniProt P12956;P13010 1-609;1-732, T305A;S306A;T307A;S314A;T316A;Ku70:). Description: pull-down.
Data set [1] has as its target Ku70/Ku80 heterodimer, wild-type (human, UniProt P12956;P13010 1-609;1-732). Description: pull-down.

Chain of Ku70-5A/Ku80 heterodimer (P12956 whole entry T305A/S306A/T307A/S314A/T316A, chain 1 of 2): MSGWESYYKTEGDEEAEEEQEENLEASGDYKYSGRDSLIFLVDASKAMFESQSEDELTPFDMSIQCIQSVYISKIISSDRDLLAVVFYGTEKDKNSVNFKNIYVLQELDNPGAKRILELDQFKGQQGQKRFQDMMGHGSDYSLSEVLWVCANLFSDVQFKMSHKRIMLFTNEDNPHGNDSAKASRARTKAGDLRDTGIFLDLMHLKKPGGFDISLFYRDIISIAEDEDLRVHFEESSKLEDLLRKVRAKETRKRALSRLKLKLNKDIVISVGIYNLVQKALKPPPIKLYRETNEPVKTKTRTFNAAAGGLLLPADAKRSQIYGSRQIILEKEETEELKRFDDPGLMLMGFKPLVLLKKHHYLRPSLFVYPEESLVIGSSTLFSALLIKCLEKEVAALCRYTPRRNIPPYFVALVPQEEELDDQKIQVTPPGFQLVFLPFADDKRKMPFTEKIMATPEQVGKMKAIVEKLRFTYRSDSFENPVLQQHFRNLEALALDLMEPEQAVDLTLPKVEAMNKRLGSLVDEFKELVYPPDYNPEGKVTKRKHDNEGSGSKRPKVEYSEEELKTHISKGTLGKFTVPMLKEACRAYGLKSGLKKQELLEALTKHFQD
Chain of Ku70-5A/Ku80 heterodimer (P13010 whole entry, stated change not applied, chain 2 of 2): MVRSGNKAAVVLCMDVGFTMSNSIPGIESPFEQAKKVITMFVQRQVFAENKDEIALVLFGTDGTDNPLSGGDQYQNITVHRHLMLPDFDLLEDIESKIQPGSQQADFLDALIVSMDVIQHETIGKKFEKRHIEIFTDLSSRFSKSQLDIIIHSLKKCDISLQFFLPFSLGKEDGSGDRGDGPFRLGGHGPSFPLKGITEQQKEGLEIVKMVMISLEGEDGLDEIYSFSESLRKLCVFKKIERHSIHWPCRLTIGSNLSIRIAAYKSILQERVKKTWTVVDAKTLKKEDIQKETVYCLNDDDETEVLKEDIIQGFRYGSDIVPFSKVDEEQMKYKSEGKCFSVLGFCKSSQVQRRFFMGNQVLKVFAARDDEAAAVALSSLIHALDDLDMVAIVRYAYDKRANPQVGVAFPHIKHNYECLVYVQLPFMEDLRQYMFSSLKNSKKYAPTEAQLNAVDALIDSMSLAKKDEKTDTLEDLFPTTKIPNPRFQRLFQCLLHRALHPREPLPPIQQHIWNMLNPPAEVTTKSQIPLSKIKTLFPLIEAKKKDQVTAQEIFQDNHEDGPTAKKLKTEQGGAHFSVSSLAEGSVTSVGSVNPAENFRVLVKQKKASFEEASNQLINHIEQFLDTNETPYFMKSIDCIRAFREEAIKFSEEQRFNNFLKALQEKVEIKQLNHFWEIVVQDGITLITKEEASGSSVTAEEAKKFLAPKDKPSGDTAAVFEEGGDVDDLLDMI
Chain of Ku70/Ku80 heterodimer, wild-type (P12956 whole entry, chain 1 of 2): as the sequence (P12956 whole entry T305A/S306A/T307A/S314A/T316A, chain 1 of 2) above, with A305T, A306S, A307T, A314S, A316T counted along it
Chain of Ku70/Ku80 heterodimer, wild-type (P13010 whole entry, chain 2 of 2): as the sequence (P13010 whole entry, stated change not applied, chain 2 of 2) above

B1: biotin-labeled forked 22-mer dsDNA (dsDNA)
DNA 1: CGCGCCCAGCTTTCCCAGCTAATAAACTAAAAACTCCTAAGG
DNA 2: CCTTAGGAGTTTTTAGTTTATTGGGCGCG
For the molecule B1, the binding result (with Ku70-5A/Ku80 heterodimer; in data set [1]) was “binds” each time.
